Stoichiometry N data for two substances are collected here from paper PMC2912431.

In assay [1] the target is C28A UreGStr (Klebsiella aerogenes) (UniProt P18319). Put plainly: SEC.
The target in assay [2] is Klebsiella aerogenes UreE (Klebsiella aerogenes). Put plainly: SEC.

Substance “C28A UreGStr (from UniProt P18319 1-205) (natural protein)” yielded a stoichiometry N in assay [1] of 2.
With “Klebsiella aerogenes UreE (natural protein)”, in assay [2], the stoichiometry N was 2.
